T1: Boi1 SH3 (BOI1_YEAST), P38041
T1 chain: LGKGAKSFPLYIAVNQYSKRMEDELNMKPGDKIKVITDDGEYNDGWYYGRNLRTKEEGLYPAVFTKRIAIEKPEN

T2: Boi2 SH3 (BOI2_YEAST), P39969
T2 chain: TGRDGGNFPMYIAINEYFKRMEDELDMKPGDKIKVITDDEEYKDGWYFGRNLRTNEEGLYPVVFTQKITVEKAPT

T3: Myo5 SH3 (MYO5_YEAST), Q04439
T3 chain: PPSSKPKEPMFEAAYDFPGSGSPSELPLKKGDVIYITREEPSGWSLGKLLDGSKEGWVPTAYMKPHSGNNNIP

T4: Rvs167 SH3 (RV167_YEAST), P39743
T4 chain: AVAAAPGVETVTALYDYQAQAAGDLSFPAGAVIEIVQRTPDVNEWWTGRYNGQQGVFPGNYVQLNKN

T5: Yfr024 SH3 (LSB3_YEAST), P43603
T5 chain: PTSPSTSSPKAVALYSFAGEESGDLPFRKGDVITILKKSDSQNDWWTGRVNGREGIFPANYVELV

T6: Yhr016c SH3 (YSC84_YEAST), P32793
T6 chain: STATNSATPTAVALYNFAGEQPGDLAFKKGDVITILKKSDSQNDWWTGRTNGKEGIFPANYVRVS


Key:
Experiment in all cases: SPOT array
[1] = molecular target: T1, Boi1 SH3 (BOI1_YEAST), P38041
[2] = molecular target: T2, Boi2 SH3 (BOI2_YEAST), P39969
[3] = molecular target: T3, Myo5 SH3 (MYO5_YEAST), Q04439
[4] = molecular target: T4, Rvs167 SH3 (RV167_YEAST), P39743
[5] = molecular target: Sho1 SH3 (SHO1_YEAST), P40073
Sequence of Sho1 SH3 (SHO1_YEAST), P40073 (P40073 295-366): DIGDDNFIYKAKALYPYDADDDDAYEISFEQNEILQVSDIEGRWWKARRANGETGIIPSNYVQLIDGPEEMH

[6] = molecular target: T5, Yfr024 SH3 (LSB3_YEAST), P43603
[7] = molecular target: T6, Yhr016c SH3 (YSC84_YEAST), P32793

| Binder | normalised SPOT signal, Boehringer light units (BLU); mean over the file's lines of this peptide [1] | normalised SPOT signal, Boehringer light units (BLU); mean over the file's lines of this peptide [2] | normalised SPOT signal, Boehringer light units (BLU); mean over the file's lines of this peptide [3] | normalised SPOT signal, Boehringer light units (BLU); mean over the file's lines of this peptide [4] | normalised SPOT signal, Boehringer light units (BLU); mean over the file's lines of this peptide [5] | normalised SPOT signal, Boehringer light units (BLU); mean over the file's lines of this peptide [6] | normalised SPOT signal, Boehringer light units (BLU); mean over the file's lines of this peptide [7] |
| --- | --- | --- | --- | --- | --- | --- | --- |
| ATKRKTIPVYPPVQ [YCR046C 20-33] | 263 | 59.9 | 274 | 49.7 | 30.2 | 204 | 28.1 |
| ATVVKNSPGDPELF [YNL187W 329-342] | 644 | 17 | 76.2 | 28.9 | 51.1 | 27.6 | 13.3 |
| AVGGKWEPGNPIAI [YHR113W 80-93] | 41.1 | 14.1 | 78.4 | 39.6 | 0 | 17.2 | 19.6 |
| AVLIRADPLNPKVV [YCR028C 355-368] | 15.3 | -0 | 102 | 12.9 | 13.9 | 34.4 | 9.5 |
| AVQLKRQPAQPRES [YBR191W 125-138] | 1480 | 14.1 | 238 | 73.8 | 65 | 438 | 41.3 |
| AVVYKLKPYIPSLS [YGR284C 61-74] | 99.5 | 24.9 | 112 | 31.8 | 93.3 | 132 | 32.4 |
| SAKSKSRPNTPGSD [YIR007W 739-752] | 1740 | 23.7 | 153 | 129 | 146 | 122 | 0 |
| SFKTKFAPEAPDLF [YDL195W 303-316] | 59.6 | 15 | 209 | 46.5 | 35.8 | 23.2 | 19 |
| SKYNRQHPANPAAA [YPL247C 221-234] | 210 | 48.5 | 189 | 61.3 | 65.9 | 126 | 38.8 |
| SLRARNGPVPPVHI [YIR027C 235-248] | 638 | 0 | 208 | 46.2 | 58.5 | 157 | 9.1 |
| SNRARYLPQNPDII [YBR195C 132-145] | 386 | 45.5 | 244 | 36.2 | 35.8 | 304 | 47.2 |
| SNYSKIFPGIPISL [YOR245C 211-224] | 41 | 25.9 | 49.2 | 84.8 | 27.6 | 112 | 60.1 |
| SRHLKLVPSTPMDI [YBR128C 258-271] | 441 | 102 | 362 | 83.7 | 225 | 546 | 40 |
| SWHPKTIPKQPMEI [YGL197W 260-273] | 26.3 | 40.7 | 343 | 90.4 | 187 | 1300 | 79.8 |
| DDIIKDHPHIPNGQ [YOR360C 470-483] | 187 | 0.5 | 57.8 | 25.4 | 23.4 | 34 | 74 |
| DDNVRPSPISPSIN [YLR337C 513-526] | 19.1 | 18.9 | 153 | 17.2 | 23.2 | 120 | 18.2 |
